# PMC8055535
# Target: light-dependent protochlorophyllide oxidoreductase (LPOR), Zea mays (Zea mays (endogenous in maize etioplasts))
# Experiment: cryo-EM structure; electron cryo-tomography and subtomogram averaging of membrane tubes from ruptured maize etioplasts, native membranes; low-salt pH 8.0 buffer with 150 mM trehalose in place of sorbitol; tube averages at 18.2 and 18.1 Å, sub-boxes of dimers at 9 Å
substance,measurement,value
"light-dependent protochlorophyllide oxidoreductase (LPOR), Zea mays (enzyme)",stoichiometry N,2
